Laboratory results as given in PMC10916747, “Safety, biodistribution and radiation dosimetry of the Arg-Gly-Asp peptide ^99mTc-maraciclatide in healthy volunteers” (Nuclear Medicine Communications, 2024).
Numbered stars: 1 amine (or outer) side, 2 acyl side, 3 side chain; on linkers, the order of the positions; unused ones are H or OH. Bridge positions count the residues as written; N and C are the ends. Side chains are listed from the residue outwards. Peptide text beside a SMILES is read from it. * marks the point of attachment. X1 = C/C(=N\O)C(C)(C)NCCC(CCNC(C)(C)/C(C)=N/O)CCN*; Glutaryl = O=C(CCCC(=O)[*:2])[*:1]; X2 = NC(=O)COCC(=O)NCCOCCOCCOCCN*

How the values were obtained:
healthy volunteers [1] = tested on: healthy volunteers; design: species or system human; details: in vivo
Procedure: The mean absorbed doses per unit injected activity to 24 target organs were evaluated from this matrix of normalised cumulated activity values, using the MIRD schema, for a 70-kg adult human. The cumulated activity in the urinary bladder contents and voided urine was calculated using a dynamic urinary bladder model for a 3.5-h voiding interval. Cumulative activities in the GI tract were calculated using a dynamic model that assumed that activity enters the GI tract solely through hepatobiliary drainage. […] At later times, it was possible to identify the ^99mTc associated with the GI tract as predominantly that in the luminal contents. The overall time course of ^99mTc activity in a ROI set over the GI tract was typically that of an initial rapid decrease which then slowed to approach the amount present in the luminal contents. This observation was considered to be due to an initial rapid uptake and subsequent tissue clearance of ^99mTc from the GI tract walls combined with the slow introduction of ^99mTc into the GI contents via hepatobiliary transport. The activity in the luminal contents was isolated by first modelling the GI tract wall tissue clearance by the renormalised time course of activity measured in a ROI set over a region of soft tissue (the quadriceps femoris in one leg). […] The ED per unit injected activity was subsequently calculated from the ensemble of organ-absorbed dose values.
The effective dose (ED) was calculated from the ensemble of organ-absorbed dose values at 7.8 ± 0.8 μSv/MBq.

healthy volunteers [2] = test: Phase 1 safety assessment (adverse events, vital signs, ECG, laboratory parameters)
Procedure: In 2003, a phase 1, placebo-controlled, observer-blinded, randomised, single ascending-dose study was performed. The study aimed to assess the safety of three intravenous levels of maraciclatide and the biodistribution and radiation dosimetry of ^99mTc-maraciclatide in healthy volunteers, assessing the potential of ^99mTc-maraciclatide as a radiopharmaceutical for diagnostic imaging.
Safety data on vital signs (heart rate, blood pressure, temperature, and oxygen saturation), electrocardiograms (ECG), laboratory parameters and physical examinations (general appearance, lung, abdominal, cardiovascular, and neurological exam by a qualified clinician) were measured prior to administration, and at multiple time points up to 7 days following administration. Based on clinical assessment, new abnormal or worsening clinical findings were defined as a change from the participant’s normal baseline to abnormal. All abnormal changes were recorded as adverse events (AEs).
Safety assessments were performed by an observer blinded to the administration of the placebo and ^99mTc-maraciclatide. A thorough review of safety data was performed before the decision was made to escalate to the higher dose in participants.

integrin receptor αvβ3 = details: background statement, no reference printed; listed as 99mTc-Maraciclatide; cited from earlier work
clinical = test: clinical; design: species or system human; details: human, in vivo, iv, total radioactivity
Procedure: (§1) On the day of administration before the administration of ^99mTc-maraciclatide, a transmission scan was obtained. The counts acquired from a flood or line source with and without the participant on the imaging couch were utilised to calculate body attenuation. Following intravenous administration of ^99mTc-maraciclatide, whole-body gamma scintigraphy was performed at 5 min post-administration up to 24 h as described below (section 2.6). Additional anterior and posterior planar images of the chest (45 min and 1 h 45 min, post-administration) and the pelvis (1 h 15 min and 2 h post-administration) were obtained for each participant.
(§2) Regions of interest (ROIs) were selected from organs and tissues on the whole-body scintigraphic images showing significant activity uptake. ^99mTc activity in ROIs was calculated using the methodology described in Medical Internal Radiation Dose (MIRD) Pamphlet No. 16 [15].
(§3) To calculate ^99mTc-maraciclatide ex-vivo activity, blood, plasma, urine, and faeces were collected at various time points after administration. Blood and plasma samples were collected at 10 min, 30 min, 1 h, 2 h, 4 h, 8 h, 24 h, 48 h, 72 h, and 7 days post-administration. Concentrations of maraciclatide in plasma were assayed using the LC-MS method (LOQ was 0.5 ng/ml). Urine was also collected at the same time points (if possible) up to 24 h post-administration. Faecal samples were collected as voided for up to 24 h post-administration. Assayed samples for ^99mTc-maraciclatide content were then measured using a gamma counter.
(§4) The biodistribution of ^99mTc was determined by whole-body conjugate view imaging in conjunction with extracorporeal activity measurements in whole blood, plasma, voided urine, and faeces, as described above. Simultaneous anterior and posterior whole-body images were acquired beginning nominally at 5 min, 15 min, 30 min, 60 min, 90 min, 3 h, 6 h and 12 h post-administration. A final anterior and posterior image pair was acquired at a ninth time-point between 21 and 24 h post-administration. Quantitative analysis of the incorporated data at multiple time points yielded biodistribution data consisting of activity in 10 specified organs or tissues [brain, salivary glands, thyroid gland, lungs, heart, spleen, liver, gallbladder, gastrointestinal (GI) tract and urinary bladder]. The remaining ^99mTc activity in other tissues was grouped within a ‘remaining tissues’ category. For each organ or tissue of interest, the ^99mTc activity was decay-corrected to the administration time and normalised to the injected activity. The temporal variation of this normalised and decay-corrected activity was then fit by one of several analytical functions, which was then integrated to yield the cumulated activity for that organ normalised to the injected activity.

healthy volunteers [3] = test: clinical; design: species or system human; details: in vivo
Procedure: as §1, §2, §3, §4

αvβ5 integrins = details: background statement, no reference printed; cited from earlier work
Description: As such, it holds promise as a novel diagnostic imaging agent for a range of pathological conditions. […] Methods A phase 1, randomised, placebo-controlled study assessed the safety, biodistribution and radiation dosimetry of ^99mTc-maraciclatide in healt ...

healthy volunteers [4] = test: clinical; design: species or system human; details: in vivo; remark: listed apart in the source
Procedure: as §3
Concentrations of maraciclatide in plasma were assayed using the LC-MS method (LOQ was 0.5 ng/ml). The mean apparent terminal elimination half-life was approximately 1 h. Overall, systemic clearance was approximately 6.7 ml/min/kg, whilst the mean apparent volume of distribution was approximately 520 ml/kg. The majority of ^99mTc activity was excreted through the urinary pathway and GI tract, 55% and 16%, respectively.

For `C/C(=N\O)C(C)(C)NCCC(CCNC(=O)CCCC(=O)NCCCC[C@@H]1NC(=O)CSC[C@@H](C(=O)NCCOCCOCCOCCNC(=O)COCC(N)=O)NC(=O)[C@H](Cc2ccccc2)NC(=O)[C@@H]2CSSC[C@H](NC1=O)C(=O)N[C@@H](CCCNC(=N)N)C(=O)NCC(=O)N[C@@H](CC(=O)O)C(=O)N2)CCNC(C)(C)/C(C)=N/O` (some centres unmarked) [^99mTc-maraciclatide, metal not drawn] ({CH2CO}-K([Glutaryl-X1])CRGDCFC-X2; disulfide 2-6; thioether N-8; N-terminus and C-terminus assumed), the “mean effective dose (ED) per unit injected activity” value (healthy volunteers [1]) was 7.8 μSv/MBq, the “Absorbed dose per unit administered activity, Adrenal glands” value (healthy volunteers [1]; iv) was 4.7 μGy/MBq and the “Absorbed dose per unit administered activity, Bone surfaces” value (healthy volunteers [1]; iv) was 4.5 μGy/MBq. For the same compound, the “Absorbed dose per unit administered activity, Brain” value (healthy volunteers [1]; iv) was 1.3 μGy/MBq, the “Absorbed dose per unit administered activity, Breasts” value (healthy volunteers [1]; iv) was 1.8 μGy/MBq and the “Absorbed dose per unit administered activity, Gallbladder wall” value (healthy volunteers [1]; iv) was 8.7 μGy/MBq. For the same compound, the “Absorbed dose per unit administered activity, Heart wall” value (healthy volunteers [1]; iv) was 6.1 μGy/MBq, the “Absorbed dose per unit administered activity, Kidneys” value (healthy volunteers [1]; iv) was 16.5 μGy/MBq and the “Absorbed dose per unit administered activity, Liver” value (healthy volunteers [1]; iv) was 11.1 μGy/MBq. The “Absorbed dose per unit administered activity, Lower large intestine wall” value (healthy volunteers [1]; iv) was 11.7 μGy/MBq, the “Absorbed dose per unit administered activity, Lungs” value (healthy volunteers [1]; iv) was 7.3 μGy/MBq and the “Absorbed dose per unit administered activity, Muscle” value (healthy volunteers [1]; iv) was 2.8 μGy/MBq. For the same compound, the “Absorbed dose per unit administered activity, Ovaries” value (healthy volunteers [1]; iv) was 6.3 μGy/MBq, the “Absorbed dose per unit administered activity, Pancreas” value (healthy volunteers [1]; iv) was 5.0 μGy/MBq and the “Absorbed dose per unit administered activity, Red marrow” value (healthy volunteers [1]; iv) was 3.0 μGy/MBq. The “Absorbed dose per unit administered activity, Skin” value (healthy volunteers [1]; iv) was 1.5 μGy/MBq, the “Absorbed dose per unit administered activity, Small intestine wall” value (healthy volunteers [1]; iv) was 8.9 μGy/MBq and the “Absorbed dose per unit administered activity, Spleen” value (healthy volunteers [1]; iv) was 16.1 μGy/MBq. For the same compound, the “Absorbed dose per unit administered activity, Stomach” value (healthy volunteers [1]; iv) was 3.8 μGy/MBq, the “Absorbed dose per unit administered activity, Testes” value (healthy volunteers [1]; iv) was 2.8 μGy/MBq and the “Absorbed dose per unit administered activity, Thymus gland” value (healthy volunteers [1]; iv) was 2.5 μGy/MBq. The “Absorbed dose per unit administered activity, Thyroid gland” value (healthy volunteers [1]; iv) was 4.9 μGy/MBq, the “Absorbed dose per unit administered activity, Upper large intestine wall” value (healthy volunteers [1]; iv) was 14.7 μGy/MBq and the “Absorbed dose per unit administered activity, Urinary bladder wall” value (healthy volunteers [1]; iv) was 36.2 μGy/MBq. The “Absorbed dose per unit administered activity, Uterus” value (healthy volunteers [1]; iv) was 7.5 μGy/MBq, the “number of non-serious AEs” value (healthy volunteers [2]; 24 participants receiving protocol-stipulated dose) was 31 and the deaths (healthy volunteers [2]; all dose groups, single i.v.) was “no deaths”. For the same compound, the “intensity of related AEs” value (healthy volunteers [2]; in vivo) was “mild intensity”, the “laboratory, ECG and vital signs parameters” value (healthy volunteers [2]; in vivo) was “no clinically important safety trends” and the “participants experiencing non-serious AEs (number)” value (healthy volunteers [2]; in vivo) was 17. The “participants experiencing non-serious AEs (percent)” value (healthy volunteers [2]; in vivo) was 71%, the “participants with AEs attributed to the agent” value (healthy volunteers [2]; in vivo) was 6 and the “participants with AEs that required medical treatment (number)” value (healthy volunteers [2]; in vivo) was 3. The “participants with AEs that required medical treatment (percent)” value (healthy volunteers [2]; in vivo) was 13%, the “participants with reduction in red blood cell count (number)” value (healthy volunteers [2]; in vivo) was 4 and the “participants with reduction in red blood cell count (percent)” value (healthy volunteers [2]; in vivo) was 17%. For the same compound, the “time to resolution of related AEs” value (healthy volunteers [2]; in vivo) was ≤ 25 h, the “affinity to αvβ3” value (integrin receptor αvβ3) was “high affinity” and the dose excreted (clinical; 99mTc activity excreted through the GI tract) was 16%. For the same compound, the dose excreted (clinical; 99mTc activity excreted through the urinary pathway) was 55%, the “normalised cumulated activity, combined walls of the small intestine and upper and lower large intestine” value (healthy volunteers [3]) was 0.9 ± 0.2 MBq*h/MBq and the “normalised cumulated activity, contents of the upper large intestine” value (healthy volunteers [3]) was 0.3 ± 0.1 MBq*h/MBq. The “normalised cumulated activity, liver” value (healthy volunteers [3]) was 0.8 ± 0.2 MBq*h/MBq, the “normalised cumulated activity, lung” value (healthy volunteers [3]) was 0.4 ± 0.1 MBq*h/MBq and the “uptake in the red bone marrow” value (healthy volunteers [3]) was “too low to be quantified”. The “affinity to αvβ5” value (αvβ5 integrins) was “high affinity” and the systemic urinary clearance (healthy volunteers [4]) was “approximately 6.7 ml/min/kg”.
